Assay: label from the status in PepcDB records
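Note: failed if final PepcDB status was selected cloned or expressed and not failed if soluble or beyond.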

MSSSSPGEPLEPTDQDLDVLLKNLGNLVTPMALRVAATLRLVDHLLAGADTLAGLADRTDTHPQALSRLVRHLTVVGVLEGGEKQGRPLRPTRLGMLLADGHPAQQRAWLDLNGAVSHADLAFTGLLDVVRTGRPAYAGRYGRPFWEDLSADVALADSFDALMSCDEDLAYEAPADAYDWSAVRHVLDVGGGNGGMLAAIALRAPHLRGTLVELAGPAERARRRFADAGLADRVTVAEGDFFKPLPVTADVVLLSFVLLNWSDEDALTILRGCVRALEPGGRLLVLDRADVEGDGADRFFSTLLDLRMLTFMGGRVRTRDEVVDLAGSAGLALASERTSGSTTLPFDFSILEFTAVSEEAAPAAQASEALPAQE
protein production: not failed

MANSIDLIGYVHQPVQFDSTLDGKFWAGTVISHEPSSDSKSESDSSSNFWIPVLFEGDLAHTANSYLKKNDRVHITGQILGDVIQSGANSDQAHVQLFKSFHGSFSHQVMVRD
protein production: failed

MLSVIIITKNEEANIRRCLESVHFADEIIVLDSGSTDNTLAIAREYTDKVFSTDWQGYGIQKDRALQKAQGDWVLNLDADESVSSELRQEILQAISSDTADAFRIPIQMIFYNQVLKYSGSPKRHIRLFKRENASYSKDIVHEKVLIPVNARVGKLKKPIWHHSFSDVHHVLYKLNKYSSYSAKIRIESNEKVGLVKTFFSALWMFVRCLFLQKGFLDGRAGFLFAVFGAQGAFYRGVKQIYKDRDINKLPSVNHIKEELEHHHHHH
protein production: not failed

MSFFNKIILIGRLVRDPEERYTLSGTPVTTFTIAVDRVPRKNAPDDAQTTDFFRIVTFGRLAEFARTYLTKGRLVLVEGEMRMRRWETPTGEKRVSPEVVANVVRFMDRKPAETVSETEEELEIPEEDFSSDTFSEDEPPF
protein production: not failed

MTEHSLWRFSRALHRALNDRQTEELATIIDDNIDWAIYGPIDMFPFFGARQGKAAVLEVCRQIADSVRIYRYHRESVMLGIDSAASMVRYSLTAAGTNRPISVRMALFTQFQNGRLTNLRMVLDTFDLVEQALGRPIHLPKIA
protein production: not failed

MQTVRGWLTLPLALLIVLTGCMAVLSALVIEVQAGATSWIIGESHWSKAQQESVYWLERYLGSADPADLQAACRALEVPLGDRAARLAVDASPIDWAEVYAGLAAGRNAREDMPQMVRLYRYGQRLPYLGSAIALWKHTDGDILHLSLLADRAASAQATGTPDARALQSLRAELHLLDGRMRRDAAQFLTLLTRCARMLHDVMVTCSLATLLLVLSTCVLAIRRTRDYLMSHEGRFRTAFQHAALGMVKFDLSGRVLDANASLANILQYPPEALQACTLAEVMHPDDIVLDSRGLIDWPRLMQAGELRFLRSDGGVLWGRWSASLVEPGPQEPSLVLAVIEDVSQAHELADEVAYHARHDALTGLINRREIERRLQRLIDPPQSPQLCHALCFVDLDHFKLVNDTFGHAVGDKFLCHFADVITMQLRPGDWLGRLGGDEFAILLANTDLAHAHTLLERMHGVLGQPWSHQGGRPLTPSCSFGVVEIRQGADDVNLLMTAADLACHAAKEEGRNRIRSFGETDLAMARRRHDGGWISAVQQAIAEDRLLLYAQKIQVLSDPGRVQYEVLVRMRTRDGRVLSPGEFLPAVERYGLGRMVDAHVLETLCAQLSANPAHVASLDLCHVNLSAQSIAQRDFLDFVCALFERYPALVAKLCLEITETAVIGDLEHAQRFVQSVRARGCHVALDDFGSGLASFGYLKQFTVDVLKIDCGFVRNYAHDAVDRATVHSIAQVGLALGIEVVAEGVESEADIAGLREAGVGQVQGFSLHRPCPLDDLLHVSLPSLAAS
protein production: failed

MSLSTMLVAEDLSAVGGISLSSALPVLTAMQYDVAALPTSLLSTHTSGYGTPAVVDLSTWLPQVFAHWTRAQLHFDQALIGYVGSVALCQQITTYLEQQTLSLLVVDPVLGDLGQLYQGFDQDYVAAMRQLIQQADVILPNTTEAALLTGAPYQVTPDLEVILPALQAQLKTGAHAVITDVQRADQIGCAWLDEAGHVQYCGARRLPGHYNGTGDTLAAVIAGLLGRGYPLAPTLARANQWLNMAVAETIAQNRTDDRQGVALGDLLQAILALNEGHHHHHH
protein production: not failed

MHQSVIDPQGLIDLKILIVIALCLLFSPHIAKILRLPLSATEIILGAIIAYFGFIGKSENFALLANVGFYYLMFIAGMEVNLRAFFNMDKEIAKKSFFYIFLLYALSSLIVWIFGLSLVFVIIIPVMSVGLLSLLFKDFGKECYWLNIAMIVATLAEVISIVLLTIAGAFLREGTGIIDVAQSILYLNIFLGLCLLGFKMLGVLFWWYPQLKVVLMPWEDKNEKDIRFCMAIFILIIVAMVITKLEIVLGSFIAGSFIATFFDHKKDLEHKLSTFGHGFLIPIFFIHIGSTFDLKMILDYKIVLQAFLLMFVMVGLRILCASVFLKRIGFKNMILFGLSHSMPLTLLIATATLGYSGKVIDEKLYSALILTALFEAIIVMSMIKFLSNSKK
protein production: failed

MTSPSPDQVIRQEILALSAYHVPPAKDMVKLDAMENPYRLPPFLCEEISRIAADTSINRYPDPHAAALKEVLSTTLSVPAGMEIMLGNGSDEIIQIIMLAAAKPEAKLLTIEPGFAMFKMIATFANMQYIGIPLKPDFSLDIDRMLAAIERHQPSVIFLAYPNNPSGNLFDTSALEKIIEISPGLVVIDEAYHPFAGKSFIGRLADYPNLLVMRTLSKLGLAGLRLGLLAGRPEWLSHLEKLRLPYNVNVITQLVATKIMQHYDVLQQQADAIRQTRTRLRTFLENLNGIEVFPSNANFILFRLDGASQIFRLLQQHGILVKNLDNSHPLLKNCLRVTVGTPEENDRFCNTLQDLIAGN
protein production: failed

MNAHRAQLISLARPVYFSLLASVAAGIINTVWVSRLGGPAVAAVAVATNTENVLLGVALVFASGTTVLVAHARGAQDPGAVRAAVRGGWALCAVVTPVVAGCGYLLREPLARLVLGGEGPALPLAVGYFAISLPGITVFYAQNLVDGILKGAGDTRTPMRLALLANGLILALDPLLIHRYGVRGAAVSTVLCRCAALGVGLLALRRNALLRGAAAVRPAEATGAALRRTLSTGLPMSADFTVRQGGALVLVAIVARLGVTAVAAYSIAYKVMYVATMAFYAVRQAASIHTAHTRGADRRASSRSAGAGSGGERRAIGRQAVVVSGTVGLLASALLCVLAPWVMRAFGAGPEVAHQGVLFLRCVGPYLLLMACFIALGGVFEGSGGAPVLLRVTLLGTAVQLPLAYALSGLGLPGICLALALAMVVQCAALLPGVRRQEDARDSLVRVA
protein production: failed

MANIFIENSLLFALTQIVPLLYIVTTALYGIHFFKETPLAGSLKQPALILTVVTHVADLGLLTSTAGYRLSYSAYNLMSMVALTLAITYMFIEFTTKSDKTGFFVIAFAAGSALFSSILSSQTVDSGLAFSGLGIGVHLFAAIFGFSSVAIAGLYSGMYLVLFRQIRLNRFGLLFQRLPNLETLEMLIMHAVAFGFFFLSVTIVAGVLEQHASKEVINLFEPRLVSLFVIWALYGISLVIKPLFGWDIKHMAVLLIALFVLVTALLFIMSLVTPSFHGMSI
protein production: failed

MFEASTFLLFMGSAIMLIIIPGPDLVFTITQGMTNGRKAGVITAMGLSLGNIVHTLAAVLGLSLIIQTSVVVFTIFKLAGAMYLFYLAYKALKHRKEEIRVNSEKTNDLKGLFLRGLIMNVLNPKVAIFYLTFLPQFVNYQSANISLQLCILGLIFIIMTAIIFSIFGYFSGTFRDRLLKNSRFNEYMNIAATIIFIGLGLKLMTTQL
protein production: failed

MNIKSAFIRKRGEKFYVYVEYIEETTGKIKQKSYGSYEKKKDAEKHLIEIKSTINNNKFVAPKDITFVERCYKYIDMNKNNWSPYTVTSTKSWVKNYIEPFFKNLKLTEVNPSSVQAFVNYNFNNSTFTSAKVRYSFLSSVIREAYRLREIQENSCDFIKLPSKEKYSTNEIYNREEVLLLIEKLLGNNIEIPILLMLLLGLRMGEATGLRWSDVDLDNNLINVNQILVYSNGKISFKEPKTPKSKRALSAPKELIEKLKIEKLRQSKLKLQGILENKNNLVCLNTNLNPFLPSSLRKTFHNFTKKNNLKKIRIHDLRHTSATLLLLGGTNMKVVSERLGHTDIKITMNRYSHVLKEMDKEASDNLSELLFK
protein production: failed

MTRTRVIAALVMAPVAMCSILFLPTAWLASLTAIIFLWGLWEWMKLSQVEDTLVRTVLLTLNLLLMVLLVWVSAHSLVLFQIATLIGIAWWILALLWLRFLGFCADPNQRTAKIVKVTAGTLAVIPAWSALVLLHSGDKPGSTFPESLHAHLWLLTAQIMIWAADSGAYFSGRLFGKHKLAPQISPNKTVEGLLGGILTGLAVAAGFGLLNGVTMAQFPSLLLVSFVAILASVIGDLFESLLKRHAGIKDSGSMIPGHGGVLDRIDSTLAALPVFALGKDIFGF
protein production: failed

MGYRRFLQLVAHEFFHLWNVKRIRPKALEQFDYEAENYTPSLWFSEGATSYYDLLLPLRAGLYGVDSFLEALGKDLSRYLTTPGRKVQPLAESSFDAWVKLYRRDAYSDNQQMSYYLKGQLVCWLLDLEIRNHQPDLEHHHHHH
protein production: not failed

IEVSYHTPDGVPGVVMTTPKLDDGTPFPTLYYLTEPRLTAEASRLEVAHVMKWMTDRLHSDEELRQDYERAHEYFLAKRNALEDLGTDFSGGGMPDRVKCLHVLIAYALAEGPDHFRLGTEAVALA
protein production: failed

MNLFVLLFVFVFGIIGSYSSKFSEKNLFWLFVIVLAIIIGGRSISVPDTDQYLEFYQLTLSSSILDIPLYSYEIGFQLLTKILKLITNGSSFFYFGIIVLINSYFLFKSFSCFTDQSYPSKKSSGTLINQIKLQEFLLLYFSYWGLYYTGIVLRAGIAMSILIYLSTLLCSPYISLKKWSAIFLLAIISCSFHITALLGIIALIIFYISKKMTMRSYLLLFLLICIILFGKVSFWIVDMLDRNMPMIFSLIEDTDFAKLQAYSNIDASIKISFRFLFCLLIGLFFIICKRMPLYYYKYLNVYIVGLFLGALFSAIEAFSRIMDFFVIYSFILISMRLSTINSFKIRFSIMFSIVLIQLLFVYRIIIGL
protein production: failed

MDEVLKEILSSYQKRALKLTKRVRKKIFKNDPTENQKKAIKIALNTPDIAIIQGPPGTGKTTVINAICERLFEEYPKDKNIKGQILLCAQGHDATNNARERIKVGGLPTFKFGAKKNAKEEQYKQDERLNERLREFAETLIESVRKKLQKLGDYENIEKILDLEEALRRYYSSPISELEFLKEIEKNESFF
protein production: failed

MIVVKVGGAEGINYEAVAKDAASLWKEGVKLLLVHGGSAETNKVAEALGHPPRFLTHPGGQVSRLTDRKTLEIFEMVYCGLVNKRLVELLQKEGANAIGLSGLDGRLFVGRRKTAVKYVENGKVKVHRGDYTGTVEEVNKALLDLLLQAGYLPVLTPPALSYENEAINTDGDQIAALLATLYGAEALVYLSNVPGLLARYPDEASLVREIPVERIEDPEYLALAQGRMKRKVMGAVEAVKGGVKRVVFADGRVENPIRRALSGEGTVVR
protein production: not failed

MRVDRSSSSSTVSLLEGKIYVAGGFDPKTHTWSSVTSPSAVIRNESVAEHKSLGLGGKFYLFGYDSDKSAVVYNPKEDNVLFYRFHGLFHWYDYKGNFWKQVNGLGPVACTEKVAILAALDTFDNAR
protein production: failed

MFDRLKNGEKIAPIVKEVESQITEVHKRADEVIESNQFRVLESFGKHKISDSHFIPTTGYGYDDIGRDTLEKVYADVFGAEAGLVRPQIISGTHAISTALFGILRPGDELLYITGKPYDTLEEIVGVRGKGVGSFKEYNIGYNAVPLTEGGLVDFEAVAAAIHSNTKMIGIQRSKGYATRPSFTISQIKEMIAFVKEIKPDVVVFVDNCYGEFIEEQEPCHVGADLMAGSLIKNPGGGIVKTGGYIVGKEQYVEACAYRLTSPGIGAEAGASLYSLQEMYQGFFLAPHVAGQALKGAIFTAAFLEKLGMNTSPAWNAPRTDLIQSVQFDDKDRMIAFCQAIQYASPINSHFTPYANYMPGYEDDVIMAAGTFIQGASIELSADGPIRPPYVAYVQGGLTYSHVKIAICSAIDELIEKNLLTISLEHHHHHH
protein production: not failed

From a protein production outcome set (Wang et al. 2014)
